Source: patent publication US20190169313A1

Target: D-dimer
Test: detection of D-dimer; format not described

titer: 0.6 µg/mL
Substance: mouse monoclonal antibody AB424 directed to GGEL (Abcam, catalog number AB424)
